What all share (conditions): both partners purified
Assay [1] has as its target T1, full-length human 14-3-3β protein with a N-terminal His6 tag (human, UniProt P31946 1-246).
T1 construct: 14-3-3 protein beta/alpha, human, full length; Treated as a dimer in the thermodynamic model (Pp = 14-3-3 dimer); also called Pp (14-3-3 dimer); source: E. coli BL21(DE3), pPROEX HTb, purified (Ni-NTA, dialysis)
T1 sequence (looked up): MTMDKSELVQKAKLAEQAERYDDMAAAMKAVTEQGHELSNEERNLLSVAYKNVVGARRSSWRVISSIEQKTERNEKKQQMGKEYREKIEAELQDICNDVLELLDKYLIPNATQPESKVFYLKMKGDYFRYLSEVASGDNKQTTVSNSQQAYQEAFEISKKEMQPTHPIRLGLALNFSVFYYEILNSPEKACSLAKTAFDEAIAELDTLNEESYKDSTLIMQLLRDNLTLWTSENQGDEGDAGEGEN
The experiment in a line: fluorescence polarisation; 2D fluorescence anisotropy titration, replicate 1: 14-3-3β titrated (from 250 µM) to FITC-labeled macrocycle or pepD with varying ChREBP peptide starting at 20 μM; KD I (binary affinity of the macrocycle for a site of the 14-3-3 dimer) fitted by the thermodynamic cooperativity model with KD II fixed at 1.5 µM; 10 mM HEPES pH 7.4, 150 mM NaCl, 0.1% Tween20, 0.1% BSA; room temperature.

Assay [2] deals with T1, full-length human 14-3-3β protein with …. Nature of the assay: fluorescence polarisation; 2D fluorescence anisotropy titration, replicate 2: 14-3-3β titrated (from 250 µM) to FITC-labeled macrocycle or pepD with varying ChREBP peptide starting at 10 μM; KD I (binary affinity of the macrocycle for a site of the 14-3-3 dimer) fitted by the thermodynamic cooperativity model with KD II fixed at 1.5 µM; 10 mM HEPES pH 7.4, 150 mM NaCl, 0.1% Tween20, 0.1% BSA; room temperature.

The target of another assay is T2, 14-3-3γ (UniProt P61981 1-247).
T2 construct: 14-3-3 protein, gamma isoform; also called 14-3-3 protein
T2 sequence (looked up): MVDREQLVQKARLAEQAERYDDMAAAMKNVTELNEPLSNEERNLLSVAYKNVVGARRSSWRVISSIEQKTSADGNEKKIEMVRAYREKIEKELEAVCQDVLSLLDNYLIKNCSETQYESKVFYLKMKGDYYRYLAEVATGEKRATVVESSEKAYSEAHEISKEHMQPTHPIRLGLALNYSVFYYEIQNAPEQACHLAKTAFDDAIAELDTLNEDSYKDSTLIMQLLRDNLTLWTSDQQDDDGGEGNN
The experiment in a line: fluorescence polarisation; fluorescence anisotropy; 14-3-3γ titrated to FITC-labeled macrocycles F1-F4 and pepD (10 nM); mean ± SD, n = 3.

For assay [3], the target named is T1, full-length human 14-3-3β protein with …. The experiment in a line: fluorescence polarisation; selectivity assay by fluorescence anisotropy: acetylated 14-3-3 client peptides titrated (from 100 μM, 2-fold) to 10 nM FITC-labeled macrocycle F2 or F4 bound to 14-3-3β (7 μM for 2, 2 μM for 4); 10 mM HEPES pH 7.4, 150 mM NaCl, 0.1% Tween20, 0.1% BSA; room temperature.

The target in a further assay is T3, 14-3-3β (UniProt P31946 1-246).
T3 construct: 14-3-3 protein, beta isoform; also called 14-3-3 protein
T3 sequence (looked up): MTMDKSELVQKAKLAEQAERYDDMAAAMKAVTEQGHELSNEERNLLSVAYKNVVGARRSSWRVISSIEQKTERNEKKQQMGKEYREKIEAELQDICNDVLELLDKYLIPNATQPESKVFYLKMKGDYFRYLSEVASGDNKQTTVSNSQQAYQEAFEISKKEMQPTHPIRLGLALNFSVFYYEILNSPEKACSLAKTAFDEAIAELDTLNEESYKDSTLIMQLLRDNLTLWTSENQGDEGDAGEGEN
Nature of the assay: fluorescence polarisation; two-dimensional fluorescence anisotropy; 14-3-3β titrated to FITC-labeled F1, F2, F3, F4 or pepD (10 nM) with varying concentrations of ChREBP peptide; fitted to a thermodynamic cooperativity model with KD II fixed at 1.5 µM; n = 2.

Assay [4] concerns the target T4, recombinant 14-3-3γ-Twinstrep protein (human, UniProt P61981 1-247).
T4 construct: 14-3-3 protein gamma; The expression of the Twinstrep construct is not described; also called Twinstrep-tagged 14-3-3γ; source: recombinant
T4 sequence (looked up): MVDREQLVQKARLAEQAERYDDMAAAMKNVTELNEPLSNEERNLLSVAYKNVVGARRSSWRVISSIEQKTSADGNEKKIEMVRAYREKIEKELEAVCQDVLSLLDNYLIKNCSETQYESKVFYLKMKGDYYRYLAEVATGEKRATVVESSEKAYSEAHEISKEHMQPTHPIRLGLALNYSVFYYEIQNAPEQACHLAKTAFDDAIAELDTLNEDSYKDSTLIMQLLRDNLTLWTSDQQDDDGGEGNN
The experiment in a line: SPR; kinetic fit (1:1 model, global); Twinstrep-tagged 14-3-3γ captured on a Strep-Tactin XT chip (about 1000 RU), 2-fold dilutions of Ac-macrocycle or pepD injected; multi-cycle; 25 °C; 10 mM HEPES pH 7.4, 200 mM NaCl, 50 μM EDTA, 0.005% P20; two replicates and their average.

Assay [5] deals with T5, full-length human 14-3-3γ protein with a N-terminal His6 tag (human, UniProt P61981 1-247).
T5 construct: 14-3-3 protein gamma, human, full length; TEV cleavage of the His6 tag is told only for the 14-3-3σ ΔC construct; source: E. coli BL21(DE3), pPROEX HTb, purified (Ni-NTA, dialysis)
T5 sequence (looked up): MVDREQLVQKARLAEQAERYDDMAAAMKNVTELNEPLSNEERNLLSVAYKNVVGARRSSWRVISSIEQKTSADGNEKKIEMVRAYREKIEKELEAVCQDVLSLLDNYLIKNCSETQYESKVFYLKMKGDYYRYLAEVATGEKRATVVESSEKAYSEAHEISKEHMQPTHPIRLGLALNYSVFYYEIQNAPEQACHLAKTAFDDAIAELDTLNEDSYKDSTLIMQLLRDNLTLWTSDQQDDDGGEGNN
The experiment in a line: ITC; 200 μM macrocycle or pepD titrated to 20 μM 14-3-3γ; 25 mM HEPES pH 8.0, 100 mM NaCl, 10 mM MgCl2, 500 µM TCEP; 25 °C; fitted with SEDPHAT; mean ± SD, n=3.

Assay [6] concerns the target T4, recombinant 14-3-3γ-Twinstrep protein. The experiment in a line: SPR; affinity fit (steady-state response against concentration, 1:1 model); Twinstrep-tagged 14-3-3γ captured on a Strep-Tactin XT chip, 2-fold dilutions of Ac-macrocycle or pepD injected; 25 °C; 10 mM HEPES pH 7.4, 200 mM NaCl, 50 μM EDTA, 0.005% P20; two replicates and their average.

Values joined by “and” are separate entries in the source; they are usually repeats but may differ in a detail not shown here. Equal values may be shown once. [ ]: non-standard residue; d: D form. pT = C[C@@H](OP(=O)(O)O)[C@H](N)C(=O)O; pS = N[C@@H](COP(=O)(O)O)C(=O)O

B1: fluorescently labeled macrocycle F3 (peptide)
chain: SFSXFKXK
modifications: not fully specified; phosphoserine; Phe(+1) triazole cyclised to the backbone amide nitrogen of Lys(+5) through a linker x = 3 (from 4-pentyn-1-ol); β-homoSer(+2); β-Ala(+3); Nph(+4); β-Ala and a lysine whose side chain carries fluorescein isothiocyanate (FITC) after Lys(+5)
In the case of B1, the Kd in assay [1] was determined as 630 nM; in assay [2] it was 380 nM.

B2: macrocycle F4 (peptide)
chain: SFSXFKXK
modifications: not fully specified; fluorescein isothiocyanate (FITC) on the side chain of the first lysine; β-alanine after it; phosphoserine; triazole from azido phenylalanine (replacing Nph(+1)) cyclised to the backbone amide nitrogen between Lys(+5) and Nph(+4), linker x = 4; β-homoSer(+2); β-Ala(+3); 4-nitrophenylalanine Nph(+4)
As for B2, in the assay with 14-3-3γ, the Kd amounted to 2100 nM.

B3: ERα client peptide (peptide)
peptide: Ac-EGFPA[pT]V-OH
SMILES: CC(=O)N[C@@H](CCC(=O)O)C(=O)NCC(=O)N[C@@H](Cc1ccccc1)C(=O)N1CCC[C@H]1C(=O)N[C@@H](C)C(=O)N[C@H](C(=O)N[C@H](C(=O)O)C(C)C)[C@@H](C)OP(=O)(O)O
notes: ERα (estrogen receptor alpha), 14-3-3 client peptide; source: synthetic peptide, bought: GenScript Biotech Corp
As to B3, in assay [3], the binding result is “binds”.

B4: macrocycle F2 (peptide)
chain: SFSXFKXK
modifications: not fully specified; fluorescein isothiocyanate (FITC) on the side chain of the first lysine; β-alanine after it; phosphoserine; triazole from azido phenylalanine (replacing Nph(+1)) cyclised to the backbone amide nitrogen between Lys(+5) and Nph(+4), linker x = 2; β-homoSer(+2); β-Ala(+3); 4-nitrophenylalanine Nph(+4)
In the assay with 14-3-3γ, B4 gave a Kd of 5700 nM.

B5: ExoS client peptide (peptide)
peptide: Ac-QGLLDALDLAS-NH2
notes: ExoS (exoenzyme S), 14-3-3 client peptide; source: synthetic peptide, bought: GenScript Biotech Corp
In the case of B5, in assay [3], the binding result is “binds”.

B6: acetylated ChREBP peptide (peptide)
peptide: Ac-RDKIRLNNAIWRAWYIQYVKRRKSPV-NH2
notes: also called S (in the model); source: synthetic peptide, bought: GenScript Biotech Corp
B6: in assay [3], the binding result is given as “binds”.

B7: macrocycle F1 (peptide)
chain: SFSXFKXK
modifications: not fully specified; fluorescein isothiocyanate (FITC) on the side chain of the first lysine; β-alanine after it; phosphoserine; triazole from azido phenylalanine (replacing Nph(+1)) cyclised to the backbone amide nitrogen between Lys(+5) and Nph(+4), linker x = 1; β-homoSer(+2); β-Ala(+3); 4-nitrophenylalanine Nph(+4)
Turning to B7, the Kd came to 57000 nM with 14-3-3γ and 72000 ± 1400 nM with 14-3-3β.

B8: macrocycle F3 (peptide)
chain: SFSXFKXK
modifications: not fully specified; fluorescein isothiocyanate (FITC) on the side chain of the first lysine; β-alanine after it; phosphoserine; triazole from azido phenylalanine (replacing Nph(+1)) cyclised to the backbone amide nitrogen between Lys(+5) and Nph(+4), linker x = 3; β-homoSer(+2); β-Ala(+3); 4-nitrophenylalanine Nph(+4)
As to B8, the Kd with 14-3-3γ worked out at 230 nM.

B9: NOTCH4 client peptide (peptide)
peptide: Ac-RPRTQ[pS]APHRRRPP-NH2
SMILES: CC(=O)N[C@@H](CCCNC(=N)N)C(=O)N1CCC[C@H]1C(=O)N[C@@H](CCCNC(=N)N)C(=O)N[C@H](C(=O)N[C@@H](CCC(N)=O)C(=O)N[C@@H](COP(=O)(O)O)C(=O)N[C@@H](C)C(=O)N1CCC[C@H]1C(=O)N[C@@H](Cc1c[nH]cn1)C(=O)N[C@@H](CCCNC(=N)N)C(=O)N[C@@H](CCCNC(=N)N)C(=O)N[C@@H](CCCNC(=N)N)C(=O)N1CCC[C@H]1C(=O)N1CCC[C@H]1C(N)=O)[C@@H](C)O
notes: NOTCH4, 14-3-3 client peptide; source: synthetic peptide, bought: GenScript Biotech Corp
Consider B9, for which the binding result in assay [3] is recorded as “binds”.

B10: macrocycle 4 (peptide)
chain: SFSXFK
modifications: not fully specified; phosphoserine (position 0); phenylalanine(+1) with a triazole (from azido phenylalanine, replacing Nph(+1)) cyclised to the backbone amide nitrogen of Lys(+5) through an alkyl linker x = 4 (from 5-hexyn-1-ol); β-homoSer(+2); β-Ala(+3); 4-nitrophenylalanine Nph(+4); Ac- (Ac-macrocycles)
Take B10: the Kd is 1140 nM and 1030 nM and 1100 nM in assay [4]; 1050 nM in assay [5]; 1180 nM and 1130 nM and 1200 nM in assay [6].

Source of the values: PMC12865133, “Macrocyclic Molecular Glues for the 14‐3‐3/ChREBP Interaction: Affinity and Cooperativity in an Inverse Relationship” (Angewandte Chemie (International Ed. in English), 2025).
